Legend:
[1] = target: C-terminal domain-only (CTD, residues 64-224) variant of ScdA (S. aureus) (UniProt P72360); assay: SEC; Superdex 75 Increase 10/300 GL, 20 mM Tris, 150 mM NaCl, pH 7.6; no reducing agent (WT also with MV radicals); oligomer peak at 9.2 mL, dimer peak at 10.9 mL
O=NO = assay: purified protein; settings: pH 7.6, methyl viologen cation radical as electron donor, 1 μM enzyme

**Q.** “C-terminal domain-only (CTD, residues 64-224) variant of ScdA (from UniProt P72360 64-224) (domain or fragment)” was tested. Which stoichiometry N [1] did it give?
**A.** The stoichiometry N was 2.

**Q.** For “ScdA (Staphylococcus aureus subsp. aureus NCTC 8325)”, which Km (O=NO; partly oligomeric) is on record?
**A.** Its Km is 681 µM.

**Q.** What about the kcat (O=NO; partly oligomeric) of the same substance?
**A.** The kcat was 32.3 min^–1.

**Q.** Which results are given for “ScdA (Staphylococcus aureus subsp. aureus NCTC 8325; C191A/C30A/C31A)”?
**A.** Km (O=NO; predominantly dimeric): 822 µM; kcat (O=NO; predominantly dimeric): 94.3 min^–1
